One series relates to Sindbis virus. Description: Antiviral activity against SINV infected african green monkey Vero cells assessed as inhibition of virus induced cytopathic effect at 100 uM measured after 48 hrs by microscopic imaging analysis. In kind it is functional, organism-based. A general note: Damage to the host cells serves as the signal in cytopathic effect assays.
Series [1] concerns O=C(/C=C/c1ccc(Cl)cc1Cl)Nc1ccccc1. Description: (§1) Binding affinity to CHIKV nsP2 assessed as Vmax (at I = 0) by measuring fluorescence by Lineweaver-Burk plot. As to conditions: Chikungunya virus.
The subject of series [2] is O=C(/C=C/c1ccc(Br)cc1)Nc1ccccc1. Described as §1. The conditions noted are these: Chikungunya virus.
Series [3] deals with COc1ccccc1/C=C/C(=O)Nc1ccccc1. The series is described as §1. As to conditions: Chikungunya virus.
Series [4] has as its system O=C(/C=C/c1ccc(C(F)(F)F)cc1)Nc1ccccc1. The description is as §1. As to conditions: Chikungunya virus.
The subject of series [5] is O=C(/C=C/c1ccc(Cl)cc1Cl)Nc1ccccc1. As to the kind of experiment: (§2) Binding affinity to CHIKV nsP2 assessed as Km by measuring fluorescence by multimode microplate reader. The conditions noted are these: Chikungunya virus.
Series [6] concerns O=C(/C=C/c1ccc(Br)cc1)Nc1ccccc1. The description is as §2. As to conditions: Chikungunya virus.
For series [7], the system named is COc1ccccc1/C=C/C(=O)Nc1ccccc1. The description is as §2. As to conditions: Chikungunya virus.
The subject of series [8] is O=C(/C=C/c1ccc(C(F)(F)F)cc1)Nc1ccccc1. The series is described as §2. The conditions noted are these: Chikungunya virus.
Series [9] deals with O=C(/C=C/c1ccc(Cl)cc1Cl)Nc1ccccc1. Description: (§3) Binding affinity to CHIKV nsP2 assessed as Vmax (at tested concentration) by measuring fluorescence by Lineweaver-Burk plot. As to conditions: Chikungunya virus.
In series [10] the test system is O=C(/C=C/c1ccc(Br)cc1)Nc1ccccc1. The description is as §3. The conditions noted are these: Chikungunya virus.
Series [11] concerns COc1ccccc1/C=C/C(=O)Nc1ccccc1. Described as §3. As to conditions: Chikungunya virus.
For series [12], the system named is O=C(/C=C/c1ccc(C(F)(F)F)cc1)Nc1ccccc1. Described as §3. The conditions noted are these: Chikungunya virus.

Calls of active or inactive are those of the source. The rule behind the calls is not given here.

Take `COc1ccccc1/C=C/C(=O)Nc1ccccc1`: the result in the series with Sindbis virus was Active.
Turning to `O=C(/C=C/c1ccc(Br)cc1)Nc1ccccc1`, the outcome in the series on Sindbis virus was Active.
For `O=C(/C=C/c1ccc(C(F)(F)F)cc1)Nc1ccccc1`, the outcome in the series with Sindbis virus was Active.
Same read-out and setting: with `O=C(/C=C/c1ccc(Cl)cc1Cl)Nc1ccccc1` the entry was “Active”.
The term Km denotes the concentration of substrate that gives half-maximal velocity. For the compound “Polyprotein P1234 (Chikungunya virus (strain S27-African prototype) (CHIKV)), Q8JUX6”, the Vmax stood at 0.84 in [1]; 0.73 in series [2]; 0.76 in [3]; 1.57 in series [4]; 0.83 in series [9]; 0.87 in series [10]. In addition, the Vmax in [11] is 0.71; in series [12], 1.58. Further, the Km stood at 3.5 µM in series [5], 5.4 µM in series [6], 4.9 µM in [7] and 9.7 µM in series [8].
